# Experimental data reported in patent US8212003.
# Test system: fusion protein SFH (SAK-GSIEGR-HV2)
substance,measurement,value
blood coagulant factor FXa,Anticoagulant activities (clot method) after cleavage of SFH with 0.2 U of FXa for 10 min at 37° C.,2560 ATU
